In the supplement of paper PMC9170038:

Test system: MS2 coat protein
Assay: apparent KD of MS2 coat protein; designed switch direction (-1 OFF switch, 1 ON switch): -1; higher = weaker reporter binding
Summary of the method: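 Designed RNA switches with common flanks were made on Illumina chips by stalled E. coli RNA polymerase. Titration with SNAP-549-labelled MS2 coat protein doubled from 0.7 or 1.5 nM up to 3 µM. Apparent KD is each design's median over clusters after curve-fitting normalised fluorescence.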

[1] = input ligand: microRNA oligo, concentration not stated
[2] = Eterna round: R95, input ligand: microRNA oligo, concentration not stated
[3] = Eterna round: R95, input ligand: FMN 200 uM
[4] = Eterna round: R95, input ligand: none

Sequence	apparent KD of MS2 coat protein (input ligand: FMN 200 uM)	apparent KD of MS2 coat protein (input ligand: none)	apparent KD of MS2 coat protein [2]	further results
GGUCCUGAUGAUUUUCUAUACAUGAGGAUCACCCAUGUAUGUUUAUUUUGUUUUUCGCUUUUUGGUCGUCAAUAAUA [Honey] (Eterna round: R97, puzzle: Sensor, turn-off variant 1)	44.1 nM	41.6 nM		
AGCCACAGAGGAUAUACAUACAUCCAGUAGUAAAGAAUACUACAUGAGGAUCACCCAUGUAGAAGGCUGUGGCA [Omei Ex2 BD B13] (Eterna round: R97, puzzle: Exclusion 2)	308 nM	86.4 nM		
GGUACUCAAAGAGUACCAAUACGAACAUGAGGAUCACCCAUGUAGGAUAUGCUACUCAAAGAGUAGCAGAAGGAUAUGAACCUC [Far Half Aptamer v10] (Eterna round: R96, puzzle: Exclusion NG 3)	407 nM	227 nM		apparent KD of MS2 coat protein [1]: 204 nM
CGUCAAGCUUCGGCAGGCAACAUGAGGAUCACCCAUGUCUGCGUUCGUCUUAACUGAUCUAGGGAUAGAUCGUGUGU [Eternabot (L1) Solution 49] (Eterna round: R97, puzzle: Sensor, turn-off variant 1)	18.3 nM	15.4 nM		
UGCAUGGUAGGAUAUACGGAACAUUAGGGUUUGUUAUGUGGACAUGAGGAUCACCCAUGUAGAAGGGCCGUGCU [JL-ex2-2.15 mat747 mod] (puzzle: Exclusion 2)			40.4 nM	
UUCCUCAUAACAUGAGGAUCACCCAUGUAUUAAUAGAUAACUGAGGAUAUACUAAUAAUGUUUAUGUAGAAGGCAGAUACAGAU [JR_ExcNG3_Sub014] (Eterna round: R96, puzzle: Exclusion NG 3)				apparent KD of MS2 coat protein [1]: 40 nM
AAAAGGCAGGGAGGAUAUGCUUACCUGGGUCGUCUUCAGACAUGAGGAUCACCCAUGUAGUCGACGCAGAAGGCCCUCAAAGCC [Mat - Exclusion NG 2 - Mod of JL - D60] (Eterna round: R96, puzzle: Exclusion NG 2)	82.6 nM	54.1 nM		apparent KD of MS2 coat protein [1]: 38.9 nM
GGUUGGCGAGGAUAUACAUGAGGAUCACCCAUGUGAGAGGAAAAAGUGAGGAAGAAAAGUAGAAGGCGCUGACG [salish99_ex3_r3_002] (puzzle: Exclusion 3)			60.8 nM	apparent KD of MS2 coat protein [3]: 142 nM; apparent KD of MS2 coat protein [4]: 56.7 nM
CCCGGGCCUGUGAGGAUAUGUUUGGGUAAACCCGGGCAGAAGGCACAUGAGGAUCACCCAUGUAAGGGUUUGGG [-29.6, -27.5 kcal, A 23%, 5bbis-5bbis] (Eterna round: R97, puzzle: Brourd's mod of Exclusion 4)	22.6 nM	34.5 nM		
AAUAACAUGUUGAUCAAAUACAUGAGGAUCACCCAUGUAUGCUUUUUGCUCGAUAAGAUCAACUAAUAAUAAUAAUA [StovNew/1-A] (Eterna round: R97, puzzle: Sensor, turn-off variant 1)	14 nM	15.6 nM		
CUCCUACAUGAGGAUCACCCAUGUCAGGAUAUCUCAGUAGCACCUAAAGGUGCUACCCAGAGAAGGGACGUGCA [Enororce] (puzzle: Exclusion 1)			11.1 nM	
ACAGUUCUGCAAGGAUAUCGUCCUAGUUUGUUUCGAGAAGGUGCUUUAGUUUAUUCCUUUUGUUUACAUGAGGAUCACCCAUGU [JR_ExcNG1_Sub050] (Eterna round: R96, puzzle: Exclusion NG 1)				apparent KD of MS2 coat protein [1]: 18 nM
GCGAAAGCAAGCAAGUGAAACAUGAGGAUCACCCAUGUCCUCAUUUGCUCGUCUUAUAAGCUAUGCGAAAGCAUAGC [Sensor 3, v1 - 2] (puzzle: Sensor v3, turn-off variant 1)			220 nM	apparent KD of MS2 coat protein [3]: 13.9 nM; apparent KD of MS2 coat protein [4]: 10.5 nM
UCGACUACAGUAGGAUAUGUAGGAUAUGUGGUUGAGGAUCACCCAACCACUUCAACGACAGAAGGACAGAAGGACUGACAUCGU [pwkr exNG2 2xFMN 1xF5.4] (Eterna round: R96, puzzle: Exclusion NG 2)	21.5 nM	20.4 nM		apparent KD of MS2 coat protein [1]: 14.2 nM
UUAUACGUUGAGGAUAUGCGAAUUAGUAUAGUUGCAGAAGGCGAUACAUGAGGAUCACCCAUGUUCAUGGGCAU [LRO-Ex6-05] (puzzle: Exclusion 6)			135 nM	
GUUCUGACAGGAUAUACAUGAGGAUCACCCAUGUGCCCUUAGAGAUGCAAAGCAUCUUGUAGAAGGGUCUGAAC [Omei Ex3 Model Bachelor's Dilema v27] (Eterna round: R97, puzzle: Exclusion 3)	42.1 nM	37.6 nM		
CUUAAUUGUGACAUGGGUGACAUGAGGAUCACCCAUGUCACAAGCUUUUUGCUCGUCUUAUAAUUAACCCAUGUCAC [Stov1/13-A3] (Eterna round: R97, puzzle: Sensor, turn-off variant 1)	30 nM	33.4 nM		

Sequence	apparent KD of MS2 coat protein (input ligand: FMN 200 uM)	apparent KD of MS2 coat protein (input ligand: none)	apparent KD of MS2 coat protein [2]	further results
GCACGGAGUGUAGGAUAUCUGUGCGAUUAGCUCAGAGAAGGACACAUGAGGAUCACCCAUGUGUAACUCAAUACUAAUCCGUGC [Eli exng1 - 077] (Eterna round: R96, puzzle: Exclusion NG 1)	10.6 nM	10.7 nM		apparent KD of MS2 coat protein [1]: 7.89 nM
UAACUUUUAGUAAGGAUAUCGGUCCCAAGGGACAACGAGAAGGUACAUGAGGAUCACCCAUGUGAAAUAAGAAU [Mod of Zala 3 - Jieux - Brourd's Mod of Exclusion 4] (Eterna round: R97, puzzle: Brourd's mod of Exclusion 4)	45.4 nM	21.1 nM		
AUUUUGUGAGGAUAUCAGGUGUGCUAGCGUACUGGUACAUCUGAGAAGGCACAUGAGGAUCACCCAUGUUUAUU [Mat - Exclusion 4 - Mod of JL - D39] (puzzle: Exclusion 4)			25.6 nM	
AUUUAGAGAGGAUAUAUAUUGUGAAACAUGAGGAUCACCCAUGUAAUAAUAUGGAUAUAAAUAGAAGGCUCAUUUU [Mat - Exclusion 5 - JL mod - D11] (puzzle: Exclusion 5)			21.2 nM	apparent KD of MS2 coat protein [3]: 26.1 nM; apparent KD of MS2 coat protein [4]: 25.1 nM
AAGUAUCAUGUAGGAUAUGCUAUCCGAACGGUAGCAGAAGGACAUGAGGAUCACCCAUGUUCUCAUCUGUGAGAACAGAUGUCU [Ex NG1 #5] (Eterna round: R96, puzzle: Exclusion NG 1)	95.2 nM	22.3 nM		apparent KD of MS2 coat protein [1]: 19.4 nM
UUGUUACAUGAGGAUCACCCAUGUGAGGAUAUGGCCCGCCCGGCGUGAGCUGGUUUUGUCAGAAGGCGCAUAGG [salish99_ex1_r4_024] (Eterna round: R97, puzzle: Exclusion 1)	79.6 nM	54.2 nM		
UCGCUCCGUGUAGGAUAUCGCCGUUCUAUUCGGCGAGAAGGACAUGAGGAUCACCCAUGUAUGUUAUUAUCACGCGUGGCGCAC [Design 57] (Eterna round: R96, puzzle: Exclusion NG 1)	21.5 nM	19.6 nM		apparent KD of MS2 coat protein [1]: 13.9 nM
CGUACUGAAGUCAGGAUAUUGUCUCGGAUACGAAACAAGAAGGGACAUGAGGAUCACCCAUGUAGACAGUACGA [Malc #30 mod 3] (puzzle: Brourd's mod of Exclusion 4)			20.5 nM	apparent KD of MS2 coat protein [3]: 19.3 nM; apparent KD of MS2 coat protein [4]: 24.9 nM
GUAGGGUCAGGAUAUACGGGCGGAGGGAUGUAUUGUAGUUGGUAGAAGGGACAUGAGGAUCACCCAUGUAAGAA [JR_Exclu4_Sub055] (puzzle: Exclusion 4)			25.3 nM	
AUCGGGUCAGGAUAUCAUAGGAGCUGAUAUCCUCGGCUCGGUGAGAAGGGACUUGAGGAUCACCCAAGUAGGGC [Ririonte] (Eterna round: R97, puzzle: Exclusion 4)	44.4 nM	46.1 nM		
CUCUUGUCAGGAUAUCUUACAUAACAAUCGUAGUUACAAUUGGAGAAGGGACAUGAGGAUCACCCAUGUUAGCG [tap-tap-tappy34] (Eterna round: R97, puzzle: Exclusion 4)	337 nM	149 nM		
ACGGACUGAGGAUAUGCAUGCAGGAUACCUUAGUCCAAGGGACAUGAGGAUCACCCAUGUAGAAGGCGGAAAUA [Riedzaanor] (Eterna round: R97, puzzle: Exclusion 2)	26.1 nM	26.5 nM		
GCUGGUCGAGGAUAUAUAUGACGUGCUUCGGCACGAAGGUCACAUGAGGAUCACCCAUGUAGAAGGUGACCAGC [E2/9-B1] (Eterna round: R97, puzzle: Exclusion 2)	110 nM	42 nM		
UUUUAACAUGAGGAUCACCCAUGUGAGGAUAUCGAAAUUUAUAUUAAUAUUAAUUUAUCGAGAAGGCACAUUUU [JMF 32] (puzzle: Exclusion 1)			108 nM	
CGUGACUGAGGAUAUCUAUAUUAUCACAUGAGGAUCACCCAUGUCCAGCGAAAGCUGGAGGGAGAAGGCAGUCACG [Fiskers Ex 5 - 28] (puzzle: Exclusion 5)			49.8 nM	apparent KD of MS2 coat protein [3]: 17.1 nM; apparent KD of MS2 coat protein [4]: 32.4 nM
CUGUAACGAGCGUGAGCCGACAUGAGGAUCACCCAUGUGCUCGUCUUAUAACGUACUGUCACGUUAGUGAUAGUGCG [Sensor v3, turn-off variant 1 (MOD of Eli's v1-13 v.2)] (puzzle: Sensor v3, turn-off variant 1)			74.7 nM	apparent KD of MS2 coat protein [3]: 45.9 nM; apparent KD of MS2 coat protein [4]: 37.3 nM
UCGCUGCGAGGAUAUACGUGCGCGCGCGCGCGCGCGCGCGUACAUGAGGAUCACCCAUGUAGAAGGCGCUCUGC [Apr-15 SS2-2] (puzzle: Exclusion 2)			22.9 nM	
